According to patent US20090100532A1, “TRANSGENIC MICE EXPRESSING HYPERSENSITIVE NICOTINIC RECEPTORS” (CALIFORNIA INSTITUTE OF TECHNOLOGY, priority 2007, published 2009):

Experiments:
[1] = target: CFP-labeled GluCl β subunit (UniProt Q17328); test: acceptor photobleaching FRET, N2a cells; specificity control
β2-CFP (mouse) = β2-CFP (mouse) (UniProt Q9ERK7); test: acceptor photobleaching FRET, N2a cells, within the same α4β2 pentamer
α4-CFP (mouse) = α4-CFP (mouse) (UniProt O70174); test: acceptor photobleaching FRET, N2a cells, untagged β2 coexpressed
α4-CFP (mouse), sequence (O70174 31-629): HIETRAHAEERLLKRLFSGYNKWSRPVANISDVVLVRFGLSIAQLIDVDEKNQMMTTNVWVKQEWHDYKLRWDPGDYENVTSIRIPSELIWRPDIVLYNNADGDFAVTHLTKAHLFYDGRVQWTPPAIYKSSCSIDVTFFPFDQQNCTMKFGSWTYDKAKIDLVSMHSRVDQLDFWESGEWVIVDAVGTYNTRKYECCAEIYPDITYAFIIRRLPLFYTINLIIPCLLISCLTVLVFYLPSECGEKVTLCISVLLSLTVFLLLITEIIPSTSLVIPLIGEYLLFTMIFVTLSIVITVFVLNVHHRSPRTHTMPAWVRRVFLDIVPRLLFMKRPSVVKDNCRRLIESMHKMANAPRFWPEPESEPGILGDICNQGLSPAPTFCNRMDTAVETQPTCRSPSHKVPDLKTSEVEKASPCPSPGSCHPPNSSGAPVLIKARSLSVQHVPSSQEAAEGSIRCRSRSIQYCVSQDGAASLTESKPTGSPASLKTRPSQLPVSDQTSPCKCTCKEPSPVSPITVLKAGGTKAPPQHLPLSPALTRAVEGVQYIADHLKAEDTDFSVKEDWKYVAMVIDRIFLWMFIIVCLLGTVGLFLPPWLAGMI

CFP-labeled GluCl β subunit, sequence (Q17328 23-434): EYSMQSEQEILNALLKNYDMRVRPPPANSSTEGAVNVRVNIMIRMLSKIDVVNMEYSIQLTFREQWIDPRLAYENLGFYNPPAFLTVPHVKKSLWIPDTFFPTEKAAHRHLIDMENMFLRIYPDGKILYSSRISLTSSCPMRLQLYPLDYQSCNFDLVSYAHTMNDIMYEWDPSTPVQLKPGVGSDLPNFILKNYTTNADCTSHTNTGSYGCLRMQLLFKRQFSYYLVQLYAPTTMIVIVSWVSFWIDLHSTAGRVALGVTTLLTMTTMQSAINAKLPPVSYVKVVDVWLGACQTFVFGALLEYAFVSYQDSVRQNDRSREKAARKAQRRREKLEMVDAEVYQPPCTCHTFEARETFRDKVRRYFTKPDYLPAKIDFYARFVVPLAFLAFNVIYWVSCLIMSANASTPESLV
α4-YFP, sequence (O70174 31-629): as the sequence (O70174 31-629) above
β2-CFP (mouse), sequence (Q9ERK7 26-501): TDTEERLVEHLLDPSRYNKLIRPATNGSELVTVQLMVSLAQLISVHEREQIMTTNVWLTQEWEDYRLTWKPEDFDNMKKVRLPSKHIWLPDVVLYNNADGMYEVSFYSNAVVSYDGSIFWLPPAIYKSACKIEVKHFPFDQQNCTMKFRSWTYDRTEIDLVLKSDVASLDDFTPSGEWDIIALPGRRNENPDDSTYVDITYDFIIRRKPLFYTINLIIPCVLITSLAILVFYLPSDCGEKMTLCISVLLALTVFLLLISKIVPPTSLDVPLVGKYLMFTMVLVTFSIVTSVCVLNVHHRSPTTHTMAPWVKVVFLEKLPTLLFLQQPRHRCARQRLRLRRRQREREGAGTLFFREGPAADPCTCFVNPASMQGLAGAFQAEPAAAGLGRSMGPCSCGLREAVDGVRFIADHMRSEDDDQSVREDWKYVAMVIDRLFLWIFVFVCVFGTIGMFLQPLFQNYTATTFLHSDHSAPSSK
β2-YFP, sequence (Q9ERK7 26-501): as above

Substance | FRET E [1] [%] | further results
α6-YFP^A405 (from UniProt Q9R0W9 31-405; Q9R0W9 406-494) (receptor) | 14 | –
β2-YFP (from UniProt Q9ERK7 26-501) (receptor) | – | FRET E (β2-CFP (mouse)): 16.3%
α4-YFP (from UniProt O70174 31-629) (receptor) | – | FRET E (α4-CFP (mouse)): 22.2%
β3-YFP^P379 (from UniProt Q8BMN3 31-379; Q8BMN3 380-464) (receptor) | 6 | –
